Laboratory results: the DeepSol protein solubility set

Assay: soluble on expression in E. coli; label from the status in PepcDB or PDB records

Sequence | soluble on expression in E. coli
MNGASRGDVQRPTPVQAPAKRPIPPTVFRFEKASKIGTSLDTTPKELPIRRPVPLPGPRFVKDVNPSPPATSSPNVQTQCHQPPVVRSQTHQASVSQTTPTQTTPSQYTPASVSTARAPQFHRSSHVTPSQQQRIEQAFGPAPVSQSQPQNGSYIQYNEPSTSVASTTTSFYSPNESEPVFTHAISFKPNEPENGQKAREQLELLDSGKINEINQSKVPTTIELPPNCKLFQYSWVLDGIPRTLLVPMPMDATEEDVKAMLPKTLEMDSNLFNNARPRDELPVLSFPNGTVPNVEMIGPKVQQPMLVNPKQFNRIMRRREMRQQLEASGRLPLARQKYLHESRHLHALKRKRGLDGRFDNTKTAESSSMVSSTTSPRKLKRRNRLPGEETSDSSSIVLPSPVEIQPKGGIVNSSMPSTSTGYINNGMDHQTDYIEHQQPMSTYDQYHDHVQYIAPDGNVNYHNNHDNGVDLTGSDGQSFTNL | soluble
MGSDKIHHHHHHMQLYYAPNTISVAVAIALEEAGLAYEAVKIDFAEKQQTTRAYHQINPKGRVPALAVEGGILTETGALLEFIADLAPDADLRPSDPVLQARMREVMFYLASTMHVNHAHKMRGSRWASNPASFKDMARKVPETMAASCEYICNHGLRGPFVLGDTPCLADFYLYVVCTWLEGDGVKLAGFPKLRAFIEAMDARDSVKTVRAKDML | not soluble
GPGSMKRADGRESPRAVRAIHVATNVLANCHSSACVEIGKTRVLCGVRPPQHLVQEYRGTRGRVSCQVHRSLASSSNLDNSGDRDMALALEGVAEQAVVLERIPQLLVGVLIEVVHDDGALWDAATTALCVALTAGGVEVYDTFSACSAALRHDGAIIVDLTREEAAAAMASVVVCSGLSLGGVYYCCHKGACEATTMSQLVQAATKGLQVRKVPLLEQIRNQLV | soluble
MALIGRQTTIQMIDLEPELPTQKDYQSDILRELTQIRNENLEYNRLEVYVLELEQIMRIRMIVDLLDLGGRLNSETLLQMCYRLVNQETDLENLRNFRDSQFAQEEQRRDRLREIGQRIFNRFEQQQEEAAGNREGSEAGERPSKENIEFRIWRFLSVLQHQDGLERLDELEREIAVRREMNAADQFQEGQDFFARINPDIVAEGIPHHNNRDNIPIERQYRTEFIQLANDLQSPPDDVRLDVFRRLIDLGVQFQESRLEQDRQRIQEEPQRQREGEIMDQLNDSVKGDMRRLNPMAPGNASGNIQQEGAGIETDVDVDDELEDEYSGSDSSQDVEEVPEESSERYVADTGSATNQPSSSTSEPNAGNEEVEDPSQRTRKRGNGSELSDAKRTN | soluble
MKLMDVHVLFSGGKDSSLSAVILKKLGYNPHLITINFGVIPSYKLAEETAKILGFKHKVITLDRKIVEKAADMIIEHKYPGPAIQYVHKTVLEILADEYSILADGTRRDDRVPKLSYSEIQSLEMRKNIQYITPLMGFGYKTLRHLASEFFILEEIKSGT | not soluble
SNANCKKIGEDSKIIIRQITDNDLELLMAWRSNPLIYKFFYIQKEPLKWEEHYSWWMSRENRVDWIILLRENNTIRKVGSVNVSQLNTDNPEIGILIGEFFLWGKHIGRHSVSLVLKWLKNIGYKKAHARILENNIRSIKLFESLGFKKTKKGRENEWIYEVNL | soluble
MGLSPHVEALQVLQTALQTGEGFIKVTGEVGTGKTLICRKLINELPQGFHCAYLPNPYLTPAELRWAVANELGLKYTSEIDQQQLTGLIQQQLLALSTHGHAIVLVLDEAQALPDESLEALRLFTNLETESRKLLQVVLFGQPELDERLKRQAFRQLRQRITFSYNLRPLEHHHHHH | not soluble
MTLPQTMKAAVVHAYGAPLRIEEVKVPLPGPGQVLVKIEASGVCHTDLHAAEGDWPVKPPLPFIPGHEGVGYVAAVGSGVTRVKEGDRVGIPWLYTACGCCEHCLTGWETLCESQQNTGYSVNGGYAEYVLADPNYVGILPKNVEFAEIAPILCAGVTVYKGLKQTNARPGQWVAISGIGGLGHVAVQYARAMGLHVAAIDIDDAKLELARKLGASLTVNARQEDPVEAIQRDIGGAHGVLVTAVSNSAFGQAIGMARRGGTIALVGLPPGDFPTPIFDVVLKGLHIAGSIVGTRADLQEALDFAGEGLVKATIHPGKLDDINQILDQMRAGQIEGRIVLEM | soluble
MMKIVPPKPFFFEAGERAVLLLHGFTGNSADVRMLGRFLESKGYTCHAPIYKGHGVPPEELVHTGPDDWWQDVMNGYEFLKNKGYEKIAVAGLSLGGVFSLKLGYTVPIEGIVTMCAPMYIKSEETMYEGVLEYAREYKKREGKSEEQIEQEMEKFKQTPMKTLKALQELIADVRDHLDLIYAPTFVVQARHDEMINPDSANIIYNEIESPVKQIKWYEQSGHVITLDQEKDQLHEDIYAFLESLDW | soluble
MGSDKIHHHHHHMTTNCVIVSQRYPPEKGGNASRIHDTAVNLGDEFNVTVLAPSLCYPPGNFERTWKRKQTERDEGVIVHRLWTWQPQRENPSLLRRLPYYVIFALHAALWLVVNFRQYDVVMTSTPPITTGFPGLVAAAIGNPWVIDVRDLWIENSIALGYIQADSPLVKAGRTFQRLALHSADRITVTTETLRDAVGDTYGSELRDRVRVVPNGVDTDRFSSVSTPENNDSRIVYTGNIGSAQALEPCIRAMQHVSSDNALLQLVGDGDEVSRLKSVTERLGLEDRVEFVGLVDRERIPEILDSATVGLAPIKDSPELDYAIPTKLYEYMACSLPVVVTGRGEIKRFTTDTDVGIHTEPDPESIAVAIETLLENPEKRVAMGQDGHRVVSEEYDRQAIAGQLGEVFRTLTVTERRESCTTPDPDHD | not soluble
MSLSNAMTSKLERFIDQGVGRVPADIVLKGGCFFDLVTGELVQSDIAIGADRIVGTSGNYEGETEIDISGRIVVPGFIDTHLHIESSLVTPHEFDRCVLPYGVTTAICDPHEIANVLGAAGIEFFLESALETIMDIRVQLSSCVPATHLETSGADLPIESLLPYRHHPKVIGLAEFMNFPGVIHKDPICMAKLDAFQGGHIDGHAPLLSGNDLNGYLAAGIRTEHECTTASEALEKIRKGVHILVREGSVSKDLAALMPIITERLSPFLALCTDDRNPLDIAEQGHLDHMIRTAIASRVEPLAIYRAASISAARAFGLKDRGLVAPGWRADLVVLDSLENCRADMVFSAGRRVTDALFSSRRPVAPIGLDSVKARPVNAAHFGVPVAEGETPVIGVIPGKIITEHRRYRLPVRGNEAAVDLANDIIKVAVIERHGKNGNHANGFVQGFGLKKGAIASTVGHDSHNICVVGVSEDDMARAANRLSEIKGGFVVVEDGKVTGEIALPIAGLMSLEPYETVRDTLHQLRKAAFALGATLEEPFLQLAFLPLPVIPHLKISDRGMVDVDKFALIGEGHHHHHH | soluble
MASGVTVNDEVIKVFNDMKVRKSSTPEEIKKRKKAVLFCLSDDKKQIIVEEAKQILVGDIGDTVEDPYTAFVKLLPLNDCRYALYDATYETKESKKEDLVFIFWAPESAPLKSKMIYASSKDAIKKKFTGIKHEWQVNGLDDIKDRSTLGEKLGGNVVVSLEGKPL | soluble
DRLTEEYGMHVYGIEFDEDRIIELRDRGYRIVAGDVTDPELWRRIELLDIPQLFAMSLPRYTDSDKVLARIHHDYPGATVATITQTRGREQALLTAGADVAVYLYEGVGDELADQAVAHLRQG | not soluble
MSLRIKNNEVAVYAIGGLHEIGKNMYCVQYQDEIIIMDCGIKFPEDDLLGINYVISDYSYLIKNRKKIKALVVSHGHEDHIGGIPFLLEKIPEIPVYATPFALSLIRGKLEEHGILKTTELHEEHEDTVLKFKKLSVSFFRTTHSIPDTLGIAVHTPLGAVVFTGDFKFDLTPVMDQPAPDFQKMAKLGNEGVLALLSDSTNAEVTQFTKSERFVAQSLHNIITGIHGRIIFATFASNLYRVSTAIQAAIDTGRKVAIFGRSMENGVDNGIDLGYLDIPKDLIVDAEEINKLPPDKVMILCTGSQGEPLAALSRIANGTHRQITLQPGDTVIFSSNPIPGNTLSVNHLINKLMEGGANVIHGRVNNVHTSGHGGQEELKMMVRLTKPKYMIPVHGEYRMQVIHTQLAQQAGVPAENTFVLSNGEVVCFGPNGARLAGRIPAGDVYVDTSGTADVGNVVVHDRQILSEEGLVVAVATVDYKHKRVLAGPDILSRGFVYMRESTELISQAQKHVYHVLRNEMSKSDKPKESEIKKAITENLSDFLYSKTERRPMILPIIIEKEGHHHHHH | soluble
MGSDKIHHHHHHMKVHLIGHASLFVETLDCNILMDPLLWNPGISEGMQDICPKRQVLHDQIPEFDILVISHQHIDHFNIRSLANLPKHVDVLIPKDQFLETCLRKLGYRHIYPLKDFNEVRIGSTRLVATRSENRVPEYGMIFADSDGVFWNQVDSIVNAQTINEVKSRYPQINFLLAPWQPLLQIQYQYNECVIFPYASYSHLLKIIGLTAPKAIAPGANGFKQINGSSWLNQIVFPVTREQFCHDVQQAYPTIQDRIFSFDPGDVITLNNGEVSHSPQKSTFVKKLADDSDSLYFSPVNTDSKLIDDNPEGYDIEQMKSVIEEEICIHLTKFFNDKKDSLFMEYGYWKAIYQLEVIFPTHSEAWYFDFSEHSIQCRRGKNPLANVFTLIAASSFYGLLKGIKGWDYANFGGYYRCFNKVYQATLYGIIRPFDDSNQGIPDPLSLKFPYKEVYERVRFYEIEKWGQVNDEQTIDKNSQNPMVIIGNTLIKPQHKVQCI | not soluble
MAHHHHHHMGFWVFDRVADGFLFRGRRQLSRLHQRNAMLDANGMPLTGDLAAEATTWRSQHAFSGRCGLSVKRSPEPHDNRDEARRNGGGDVPHPEKMLPSYECIISRSPNDYRAWAVDFHLQSTSEDPHVLLSVAPYYAPLQSNFVEGGRSWHPPTTEEQEMYDKRMLETPLIWEEPMTLSLDCTNSGMFLWSEEWKIFGEKIADNCFSRRSQSRGGDDSVDQMGGVSGVREGPYEAFVRLSWRMMSAGENDMYGGEKRSLSDASVRNIIVGPCQGEMTVFLRTSSSDQEEGDVSVPRQINGTGNVGAHGGESVSSGVQVWKRAGGRAVLGDDIPNEIYFTPYVTLMDAGDEAILL | soluble
MYTQTLYELSQEAERLLQLSRQQLQLLEKMPLSVPGDDAPQLALPWSQPNIAERHAMLNNELRKISRLEMVLAIVGTMKAGKSTTINAIVGTEVLPNRNRPMTALPTLIRHTPGQKEPVLHFSHVAPIDCLIQKLQQRLRDCDIKHLTDVLEIDKDMRALMQRIENGVAFEKYYLGAQPIFHCLKSLNDLVRLAKALDVDFPFSAYAAIEHIPVIEVEFVHLAGLESYPGQLTLLDTPGPNEAGQPHLQKMLNQQLARASAVLAVLDYTQLKSISDEEVREAILAVGQSVPLYVLVNKFDQQDRNSDDADQVRALISGTLMKGCITPQQIFPVSSMWGYLANRARHELANNGKLPPPEQQRWVEDFAHAALGRRWRHADLADLEHIRHAADQLWEDSLFAQPIQMLLHAAYANASLYALRSAAHKLLNYAQQAREYLDFRAHGLNVACEQLRQNIHQIEESLQLLQLNQAQVSGEIKHEIELALTSANHFLRQQQDALKVQLAALFQDDSEPLSEIRTRCETLLQTAQNTISRDFTLRFAELESTLCRVLTDVIRPIEQQVKMELSESGFRPGFHFPVFHGVVPHFNTRQLFSEVISRQEATDEQSTRLGVVRETFSRWLNQPDWGRGNEKSPTETVDYSVLQRALSAEVDLYCQQMAKVLAEQVDESVTAGMNTFFAEFASCLTELQTRLRESLALRQQNESVVRLMQQQLQQTVMTHGWIYTDAQLLRDDIQTLFTAERY | not soluble
